# From publication PMC6208296, “Redox regulation of pyruvate kinase M2 by cysteine oxidation and S-nitrosation” (Biochemical Journal, 2018)
# Tests used:
# [1] = target: the molecule itself; assay: crystal structure; hanging drop vapour diffusion, 10 mg/ml protein with 5 mM of each ligand, PEG 3350, sodium cacodylate pH 6, 50 mM MgCl2, 100 mM KCl; 18°C (C424A, with F-1,6-BP, oxalate and ATP) or 4°C (C358S)
# [2] = target: the molecule itself; assay: SEC; analytical gel filtration, Superdex 200 PC 3.2/30 in PBS-CM, room temperature; 0.1 mg/ml incubated 12 h (equilibrium) without or with 1 mM DTT or 20 μM H2O2; tetramer to monomers, peak areas on a bimodal distribution
# [3] = target: the molecule itself; assay: cell-based or functional assay
protein,measurement,setting,value
"M2PYK C424A (enzyme, pyruvate kinase, M2 isoform (M2PYK), human, point mutant made on pET28a-M2PYK; Made by QuikChange on pET28a-M2PYK; no step that removes the His tag is described; source: E. coli BL21, purified (cobalt IMAC, Superdex 200 gel filtration)) not shown",binding result,[1],binds
"M2PYK C358S (enzyme, pyruvate kinase, M2 isoform (M2PYK), human, point mutant made on pET28a-M2PYK; Made by QuikChange on pET28a-M2PYK; no step that removes the His tag is described; also called Cys358Ser; MPYK C358S; source: E. coli BL21, purified (cobalt IMAC, Superdex 200 gel filtration)) not shown",stoichiometry N,[2],4
M2PYK C326S (enzyme) not shown,"enzymatic activity, LDH-coupled assay, without F-1,6-BP, relative to M2PYK WT",[3],~20 % of WT activity
